Test results from patent CN113234166A (SHENZHEN INNOVA NANOBODI CO LTD, dated 2021).

Molecular target: T1, 血清标本中的AFP抗原 (UniProt P02771 19-609)
T1 construct: also called 质控血清AFP; 标准血清中的AFP
T1 sequence (looked up): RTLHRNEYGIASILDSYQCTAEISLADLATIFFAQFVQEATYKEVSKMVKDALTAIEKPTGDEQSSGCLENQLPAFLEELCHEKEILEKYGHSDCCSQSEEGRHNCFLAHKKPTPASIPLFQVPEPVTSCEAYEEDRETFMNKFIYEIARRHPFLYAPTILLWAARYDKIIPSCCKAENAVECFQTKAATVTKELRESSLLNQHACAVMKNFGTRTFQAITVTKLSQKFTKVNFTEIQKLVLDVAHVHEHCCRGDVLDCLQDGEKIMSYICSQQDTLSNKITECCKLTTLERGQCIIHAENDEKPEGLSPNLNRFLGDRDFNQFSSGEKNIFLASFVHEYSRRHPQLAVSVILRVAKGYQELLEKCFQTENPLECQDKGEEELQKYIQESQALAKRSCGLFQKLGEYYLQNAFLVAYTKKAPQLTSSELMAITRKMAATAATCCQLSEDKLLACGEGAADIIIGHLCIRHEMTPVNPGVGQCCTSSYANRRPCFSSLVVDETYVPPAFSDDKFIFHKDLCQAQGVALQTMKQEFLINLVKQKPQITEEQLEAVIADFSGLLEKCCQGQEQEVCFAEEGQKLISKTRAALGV
Experiment: double-antibody sandwich chemiluminescent immunoassay, detection antibody

B1: 带有化学发光区序列的纳米抗体1C5-HAP (other)
chain: QVQLQESGGGLVQAGGSLRLSCKASERTFSSYSMAWYRQAPGKKREFVASISWDDERTYYTDSVKGRFTISRPNAKNTVYLQMNSLKPEDTAVYYCAVGGLSDGLGPSYDYWGQGTQVTVSSGGGGSGGGGSGGGGSIIPVEEENPDFWNREAAEALGAAKKLQPAQTAAKNLIIFLGDGMGVSTVTAARILKGQKKDKLGPEIPLAMDRFPYVALSKTYNVDKHVPDSGATATAYLCGVKGNFQTIGLSAAARFNQCNTTRGNEVISVMNRAKKAGKSVGVVTTTRVQHASPAGTYAHTVNRNWYSDADVPASARQEGCQDIATQLISNMDIDVILGGGRKYMFRMGTPDPEYPDDYSQGGTRLDGKNLVQEWLAKRQGARYVWNRTELMQASLDPSVTHLMGLFEPGDMKYEIHRDSTLDPSLMEMTEAALRLLSRNPRGFFLFVEGGRIDHGHHESRAYRALTETIMFDDAIERAGQLTSEEDTLSLVTADHSHVFSFGGYPLRGSSIFGLAPGKARDRKAYTVLLYGNGPGYVLKDGARPDVTESESGSPEYRQQSAVPLDEETHAGEDVAVFARGPQAHLVHGVQEQTFIAHVMAFAACLEPYTACDLAPPAGTTD
notes: Expressed in 293 cells
binding result: binds
